Measurements as given in publication PMC3795721, “Screening for Protein-DNA Interactions by Automatable DNA-Protein Interaction ELISA”.

B1: 201 (dsDNA)
DNA 1: AAAAAAGATCTAGGCCTTGGGACTCAAAAA
DNA 2: TTTTTGAGTCCCAAGGCCTAGATCTTTTTT
B2: 334 (dsDNA)
DNA 1: AAAAAATTCCGGCTTGACGCTGCATAAAAA
DNA 2: TTTTTATGCAGCGTCAAGCCGGAATTTTTT
B3: 282 (dsDNA)
DNA 1: AAAAAACAGGCCGATTCCGATCCCGGAAAA
DNA 2: TTTTCCGGGATCGGAATCGGCCTGTTTTTT
B4: 305 (dsDNA)
DNA 1: AAAAAACGCTTTCAGTTTTGATCTTAAAAA
DNA 2: TTTTTAAGATCAAAACTGAAAGCGTTTTTT
B5: 32 (dsDNA)
DNA 1: AAAAAACCTACGATGGTTCTGATCTTAAAA
DNA 2: TTTTAAGATCAGAACCATCGTAGGTTTTTT
B6: 160 (dsDNA)
DNA 1: AAAAAACGGTCGCGATCGTTAATGATAAAA
DNA 2: TTTTATCATTAACGATCGCGACCGTTTTTT
B7: 130 (dsDNA)
DNA 1: AAAAAACGCAACTCCGGATGTGGGGTAAAA
DNA 2: TTTTACCCCACATCCGGAGTTGCGTTTTTT
B8: 300 (dsDNA)
DNA 1: AAAAAACTCGCGCTTGCATCTGTGCGAAAA
DNA 2: TTTTCGCACAGATGCAAGCGCGAGTTTTTT
B9: 204 (dsDNA)
DNA 1: AAAAAAGGAAGTACTGACGATCTGGAAAAA
DNA 2: TTTTTCCAGATCGTCAGTACTTCCTTTTTT
B10: 15 (dsDNA)
DNA 1: AAAAAAATCCGATCGATGCATATATAAAA
DNA 2: TTTTATATATGCATCGATCGGATTTTTTT
B11: 227 (dsDNA)
DNA 1: AAAAAAGGCTCCGGCCCCCAATCGCAAAAA
DNA 2: TTTTTGCGATTGGGGGCCGGAGCCTTTTTT
B12: 238 (dsDNA)
DNA 1: AAAAAATCGGGGATCCGGGCGGTTGCAAAA
DNA 2: TTTTGCAACCGCCCGGATCCCCGATTTTTT
B13: 290 (dsDNA)
DNA 1: AAAAAATGTCTAGACTCGGACATTCGAAAA
DNA 2: TTTTCGAATGTCCGAGTCTAGACATTTTTT
B14: 234 (dsDNA)
DNA 1: AAAAAAGGTCTGGACGATCACCGGGAAAAA
DNA 2: TTTTTCCCGGTGATCGTCCAGACCTTTTTT
B15: 314 (dsDNA)
DNA 1: AAAAAATTGGCACACATGATCTCGGGAAAA
DNA 2: TTTTCCCGAGATCATGTGTGCCAATTTTTT
B16: probe 38 version with palindromic TGATCA (dsDNA)
DNA 1: AAAAAATTTATACTTGATCATGGCTTAAAA
DNA 2: TTTTAAGCCATGATCAAGTATAAATTTTTT
B17: 202 (dsDNA)
DNA 1: AAAAAAGATTGACTCGTCTTACTCGAAAAA
DNA 2: TTTTTCGAGTAAGACGAGTCAATCTTTTTT
B18: 246 (dsDNA)
DNA 1: AAAAAACTGACCGTCAGCGCCCACGCAAAA
DNA 2: TTTTGCGTGGGCGCTGACGGTCAGTTTTTT

Target: T1, AtTIFY1 (Arabidopsis thaliana, UniProt Q9LRH6 1-309)
T1 sequence: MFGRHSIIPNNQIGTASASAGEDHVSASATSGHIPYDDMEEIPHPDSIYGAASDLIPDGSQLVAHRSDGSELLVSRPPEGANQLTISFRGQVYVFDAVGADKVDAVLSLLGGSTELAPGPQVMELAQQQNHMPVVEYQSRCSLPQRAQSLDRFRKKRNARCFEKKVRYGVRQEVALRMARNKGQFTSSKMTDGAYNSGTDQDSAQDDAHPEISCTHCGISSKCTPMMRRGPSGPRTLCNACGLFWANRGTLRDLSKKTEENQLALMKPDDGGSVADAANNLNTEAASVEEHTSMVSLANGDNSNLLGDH
Test: DPI-ELISA; DPI-ELISA, streptavidin 384-well plate, 1-2 pmol biotinylated dsDNA per well, crude native E. coli extract, anti-His detection; buffer as in Brand et al. [46],; high values mean tight binding
Conditions: tags: C-terminal His (pET-DEST42); label: 5' biotin on forward strand

First: B1
Second: B2
The binding signal of the first is higher: 1.81 relative normalized absorbance for the first, 1.43 relative normalized absorbance for the second.

First: B3
Second: B4
The binding signal of the first is higher: 1.83 relative normalized absorbance for the first, 1.55 relative normalized absorbance for the second.

Compared with B5, B6 is lower in binding signal: 1.8 relative normalized absorbance for the first, 1.47 relative normalized absorbance for the second.

Compared with B7, B8 is lower in binding signal: 1.54 relative normalized absorbance for the first, 1.45 relative normalized absorbance for the second.

First: B9
Second: B10
The binding signal of the first is lower: 1.52 relative normalized absorbance for the first, 1.63 relative normalized absorbance for the second.

Compared with B11, B12 is higher in binding signal: 1.44 relative normalized absorbance for the first, 1.69 relative normalized absorbance for the second.

First: B13
Second: B14
The binding signal of the first is lower: 1.52 relative normalized absorbance for the first, 1.7 relative normalized absorbance for the second.

With B15 the binding signal was 1.5 relative normalized absorbance.

Target: T1, AtTIFY1
Test: DPI-ELISA; highest affinity; DPI-ELISA on streptavidin plates with biotinylated dsDNA (1 pmol in Figure S1, 2 pmol in Figure 1 legend) and crude E. coli extract; anti-His detection; buffer, pH and temperature not given (ref 46)
Conditions: protein: recombinant; tags: C-terminal His (pET-DEST42); label: 5' biotin on forward strand; blunt

B16: binds.

Target: T2, AtbZIP63 (Arabidopsis thaliana, UniProt B9DGI8 1-314)
T2 sequence: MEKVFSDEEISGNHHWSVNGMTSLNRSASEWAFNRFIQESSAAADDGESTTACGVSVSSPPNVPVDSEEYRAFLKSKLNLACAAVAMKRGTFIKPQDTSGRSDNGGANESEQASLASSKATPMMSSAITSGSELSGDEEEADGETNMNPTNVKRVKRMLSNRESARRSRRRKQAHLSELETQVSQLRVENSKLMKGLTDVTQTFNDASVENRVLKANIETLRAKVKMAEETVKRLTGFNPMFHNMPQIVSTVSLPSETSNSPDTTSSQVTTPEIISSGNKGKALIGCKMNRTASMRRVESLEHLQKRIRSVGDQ
Test: DPI-ELISA; DPI-ELISA, streptavidin 384-well plate, 1-2 pmol biotinylated dsDNA per well, crude native E. coli extract, anti-His detection; buffer as in Brand et al. [46],; high values mean tight binding
Conditions: tags: C-terminal His (pET-DEST42); chain copies: 2; label: 5' biotin on forward strand

Compared with B17, B18 is lower in binding signal: 2.68 relative normalized absorbance for the first, 1.96 relative normalized absorbance for the second.

Target: WRKY33 cDBD (Arabidopsis thaliana, UniProt Q8S8P5 345-449)
Test: as above
Conditions: tags: C-terminal His (pET-DEST42); label: 5' biotin on forward strand

WRKY33 cDBD, sequence (Q8S8P5 other isoform, or with tags, fused parts or gaps): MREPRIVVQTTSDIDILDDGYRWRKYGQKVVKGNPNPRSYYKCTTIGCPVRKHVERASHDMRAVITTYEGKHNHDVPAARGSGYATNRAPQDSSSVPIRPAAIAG

Compared with B6, B17 is higher in binding signal: 2.05 relative normalized absorbance for the first, 2.3 relative normalized absorbance for the second.

In the case of B18, the binding signal is reported as 2.09 relative normalized absorbance.
